Source: paper PMC6625990 (2019)
No end group written: not given here. *: point of attachment. Biotin = O=C1N[C@H]2[C@H](CS[C@H]2CCCCC(=O)*)N1

T1: bovine Ric8A1–492 (bovine, UniProt Q5E9J8 1-492)
T1 chain: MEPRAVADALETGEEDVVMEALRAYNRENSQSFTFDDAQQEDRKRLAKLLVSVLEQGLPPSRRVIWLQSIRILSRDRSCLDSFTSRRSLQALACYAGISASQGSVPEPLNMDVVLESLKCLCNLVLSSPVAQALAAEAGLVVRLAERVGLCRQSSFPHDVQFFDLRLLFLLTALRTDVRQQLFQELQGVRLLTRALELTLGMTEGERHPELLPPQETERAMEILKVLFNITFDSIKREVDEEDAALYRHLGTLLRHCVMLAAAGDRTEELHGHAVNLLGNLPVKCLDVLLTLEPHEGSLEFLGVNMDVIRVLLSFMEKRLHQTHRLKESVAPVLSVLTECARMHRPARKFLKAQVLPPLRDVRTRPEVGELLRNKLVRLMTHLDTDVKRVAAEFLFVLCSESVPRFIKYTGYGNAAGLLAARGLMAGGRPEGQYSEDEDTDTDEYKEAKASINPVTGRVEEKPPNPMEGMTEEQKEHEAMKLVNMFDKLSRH


Target: T1, bovine Ric8A1–492
Test: BLI

| Binder | Kd [µM] |
| --- | --- |
| Biotin-NDCRDIIQRMHLRQCGLF (cysteine pairing not given here) [peptide C1] | 4.7 |
| Biotin-NDCRDIIQRMHLRQYELL [Gαs363–380] | 4.4 |
| Biotin-NDCRDIIIRMNLRQCGLF (cysteine pairing not given here) [peptide C2] | 0.063 |
